Experimental data from publication PMC10397247.
Like-named read-outs stand apart in the source and are kept apart here.

T1: 4H3009-AA
T1 chain: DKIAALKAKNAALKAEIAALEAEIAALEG

T2: 4H2611-AA
T2 chain: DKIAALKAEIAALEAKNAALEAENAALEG

T3: 4H2438-AA
T3 chain: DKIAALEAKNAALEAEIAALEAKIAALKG

T4: 4H3016-AA
T4 chain: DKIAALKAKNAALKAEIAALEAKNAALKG

T5: 4H2725-AA
T5 chain: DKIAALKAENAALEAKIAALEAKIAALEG

T6: 4H3165-AA
T6 chain: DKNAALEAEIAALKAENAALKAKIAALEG

T7: 4H3590-AA
T7 chain: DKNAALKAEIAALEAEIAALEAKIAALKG

T8: 4H3606-AA
T8 chain: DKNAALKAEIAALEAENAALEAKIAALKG

T9: 4H2649-AA
T9 chain: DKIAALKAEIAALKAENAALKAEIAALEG

T10: 4H697-AA
T10 chain: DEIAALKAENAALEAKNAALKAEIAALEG

T11: 4H3697-AA
T11 chain: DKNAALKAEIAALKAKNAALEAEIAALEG

T12: 4H629-AA
T12 chain: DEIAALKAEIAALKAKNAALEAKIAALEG

T13: 4H3410-AA
T13 chain: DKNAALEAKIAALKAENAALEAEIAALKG

T14: 4H2698-AA
T14 chain: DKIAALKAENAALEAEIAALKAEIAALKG

T15: 4H909-AA
T15 chain: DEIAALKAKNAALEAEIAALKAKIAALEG

T16: 4H570-AA
T16 chain: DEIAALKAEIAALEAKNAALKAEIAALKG

T17: 4H3120-AA
T17 chain: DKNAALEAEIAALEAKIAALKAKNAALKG

T18: 4H536-AA
T18 chain: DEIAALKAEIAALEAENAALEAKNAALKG

T19: 4H94-AA
T19 chain: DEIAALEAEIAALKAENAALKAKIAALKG

T20: 4H384-AA
T20 chain: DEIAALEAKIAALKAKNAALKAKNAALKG

T21: 4H2330-AA
T21 chain: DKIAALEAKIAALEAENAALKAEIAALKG

T22: 4H745-AA
T22 chain: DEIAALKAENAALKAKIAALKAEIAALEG

T23: 4H2473-AA
T23 chain: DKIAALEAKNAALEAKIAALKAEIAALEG

T24: 4H982-AA
T24 chain: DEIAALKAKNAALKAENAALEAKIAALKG

T25: 4H3718-AA
T25 chain: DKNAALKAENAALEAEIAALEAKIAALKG

T26: 4H797-AA
T26 chain: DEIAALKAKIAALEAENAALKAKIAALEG

T27: 4H3631-AA
T27 chain: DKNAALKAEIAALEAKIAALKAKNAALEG

T28: 4H458-AA
T28 chain: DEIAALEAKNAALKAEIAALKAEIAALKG

T29: 4H3395-AA
T29 chain: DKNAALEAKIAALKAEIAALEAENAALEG

T30: 4H3381-AA
T30 chain: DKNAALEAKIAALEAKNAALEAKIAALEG

T31: 4H710-AA
T31 chain: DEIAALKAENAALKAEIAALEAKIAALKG

T32: 4H850-AA
T32 chain: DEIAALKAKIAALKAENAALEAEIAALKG

T33: 4H310-AA
T33 chain: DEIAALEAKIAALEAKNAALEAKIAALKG

T34: 4H3865-AA
T34 chain: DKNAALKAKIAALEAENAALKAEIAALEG

T35: 4H2253-AA
T35 chain: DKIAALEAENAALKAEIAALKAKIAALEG

T36: 4H3130-AA
T36 chain: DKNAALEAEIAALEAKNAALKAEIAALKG

T37: 4H2274-AA
T37 chain: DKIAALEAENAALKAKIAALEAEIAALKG

T38: 4H2774-AA
T38 chain: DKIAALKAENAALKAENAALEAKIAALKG

T39: 4H_BCR
T39 chain: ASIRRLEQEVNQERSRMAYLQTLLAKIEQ

T40: 4H_APH
T40 chain: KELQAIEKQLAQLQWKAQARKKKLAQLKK


Tests used:
Experiment in all cases: two-hybrid library CCmax;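 note: natural log of median RNA to DNA barcode read ratio; higher means stronger binding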
4H3009-AA = target: T1, 4H3009-AA; conditions: mean of both orientations
4H2611-AA = target: T2, 4H2611-AA; conditions: mean of both orientations
4H2438-AA = target: T3, 4H2438-AA; conditions: mean of both orientations
4H3016-AA = target: T4, 4H3016-AA; conditions: mean of both orientations
4H2725-AA = target: T5, 4H2725-AA; conditions: mean of both orientations
4H3165-AA = target: T6, 4H3165-AA; conditions: mean of both orientations
4H3590-AA = target: T7, 4H3590-AA
4H3606-AA = target: T8, 4H3606-AA; conditions: mean of both orientations
4H2649-AA = target: T9, 4H2649-AA; conditions: mean of both orientations
4H697-AA = target: T10, 4H697-AA; conditions: mean of both orientations
4H3697-AA = target: T11, 4H3697-AA; conditions: mean of both orientations
4H629-AA = target: T12, 4H629-AA; conditions: mean of both orientations
4H3410-AA = target: T13, 4H3410-AA; conditions: mean of both orientations
4H2698-AA = target: T14, 4H2698-AA; conditions: mean of both orientations
4H909-AA = target: T15, 4H909-AA; conditions: mean of both orientations
4H570-AA = target: T16, 4H570-AA; conditions: mean of both orientations
4H3120-AA = target: T17, 4H3120-AA; conditions: mean of both orientations
4H536-AA = target: T18, 4H536-AA; conditions: mean of both orientations
4H94-AA = target: T19, 4H94-AA; conditions: mean of both orientations
4H384-AA = target: T20, 4H384-AA; conditions: mean of both orientations
4H2330-AA = target: T21, 4H2330-AA; conditions: mean of both orientations
4H745-AA = target: T22, 4H745-AA; conditions: mean of both orientations
4H2473-AA = target: T23, 4H2473-AA; conditions: mean of both orientations
4H982-AA = target: T24, 4H982-AA; conditions: mean of both orientations
4H3718-AA = target: T25, 4H3718-AA; conditions: mean of both orientations
4H797-AA = target: T26, 4H797-AA; conditions: mean of both orientations
4H3631-AA = target: T27, 4H3631-AA
4H458-AA = target: T28, 4H458-AA; conditions: mean of both orientations
4H3395-AA = target: T29, 4H3395-AA; conditions: mean of both orientations
4H3381-AA = target: T30, 4H3381-AA; conditions: mean of both orientations
4H710-AA = target: T31, 4H710-AA; conditions: mean of both orientations
4H850-AA = target: T32, 4H850-AA; conditions: mean of both orientations
4H310-AA = target: T33, 4H310-AA
4H3865-AA = target: T34, 4H3865-AA; conditions: mean of both orientations
4H2253-AA = target: T35, 4H2253-AA
4H3130-AA = target: T36, 4H3130-AA; conditions: mean of both orientations
4H2274-AA = target: T37, 4H2274-AA
4H2774-AA = target: T38, 4H2774-AA; conditions: mean of both orientations
GCN2_T = conditions: mean of both orientations
4H_BCR = target: T39, 4H_BCR; conditions: mean of both orientations
4H_GCN4 = target: 4H_GCN4
4H_APH = target: T40, 4H_APH

4H_GCN4, sequence (chain, as listed by the source): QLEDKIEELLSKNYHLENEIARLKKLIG

| Binder | interaction score (4H3009-AA) | interaction score (4H2438-AA) | interaction score (4H3016-AA) | interaction score (4H2725-AA) | interaction score (4H3165-AA) | interaction score (4H2649-AA) | interaction score (4H3697-AA) | interaction score (4H629-AA) | interaction score (4H3410-AA) | interaction score (4H2698-AA) | interaction score (4H909-AA) | interaction score (4H570-AA) | interaction score (4H3120-AA) | interaction score (4H536-AA) | interaction score (4H94-AA) | interaction score (4H2330-AA) | interaction score (4H745-AA) | interaction score (4H2473-AA) | interaction score (4H797-AA) | interaction score (4H458-AA) | other results |
| --- | --- | --- | --- | --- | --- | --- | --- | --- | --- | --- | --- | --- | --- | --- | --- | --- | --- | --- | --- | --- | --- |
| DENAALEAKIAALEAENAALKAKIAALKG [4H1310-AA] | 0.0502 | -0.264 | 0.425 | -1.12 | 0.0119 | 1.94 | 0.439 | -1.49 | 1.9 | -0.391 | -1.21 | 0.408 | -1.24 | -1.27 | -0.926 | 1.35 | -1.11 | -1.02 | 1.92 | -1.3 | interaction score (4H2611-AA): -1.46; interaction score (4H3590-AA; mean of both orientations): -0.24; interaction score (4H3606-AA): 2.23; interaction score (4H697-AA): -1.05; interaction score (4H384-AA): -1.55; interaction score (4H982-AA): -1.4; interaction score (4H3718-AA): -1.04; interaction score (4H3631-AA; mean of both orientations): -1.57; interaction score (4H3395-AA): -0.984; interaction score (4H3381-AA): -1.23; interaction score (4H710-AA): -0.684; interaction score (4H850-AA): 1.87; interaction score (4H310-AA; mean of both orientations): -0.748; interaction score (4H3865-AA): 2.2; interaction score (4H2253-AA; mean of both orientations): -0.556; interaction score (4H3130-AA): 0.822; interaction score (4H2274-AA; mean of both orientations): -1.15 |
| DENAALKAEIAALKAENAALKAEIAALKG [4H1626-AA] | -1.64 | -1.65 | -1.84 | -1.77 | -0.447 | 0.931 | -1.21 | -1.63 | -0.738 | -1.09 | -1.36 | 0.298 | -1.91 | -1.73 | 1.29 | -1.37 | -1.25 | -1.45 | -1.41 | -1.65 | interaction score (4H2611-AA): -1.57; interaction score (4H3590-AA; mean of both orientations): -1.51; interaction score (4H2774-AA): -1.46; interaction score (4H3395-AA): -1.69; interaction score (4H3381-AA): -1.5; interaction score (4H710-AA): -1.04; interaction score (4H850-AA): 1.29; interaction score (4H310-AA; mean of both orientations): -1.28; interaction score (4H3865-AA): -0.626; interaction score (4H2253-AA; mean of both orientations): -1.52; interaction score (4H3130-AA): -0.637; interaction score (4H2274-AA; mean of both orientations): -1.5 |
| DENAALEAEIAALKAKNAALEAKIAALKG [4H1142-AA] | -0.415 | -0.434 | 0.156 | -1.15 | -0.754 | 0.913 | 2.08 | 0.124 | 0.438 | -1.05 | -1.05 | -0.319 | -1.55 | -1.1 | -1.72 | -1.84 | -1.19 | -2.06 | -1.29 | -1.34 | interaction score (4H2611-AA): -0.194; interaction score (4H3590-AA; mean of both orientations): 0.23; interaction score (4H3606-AA): 1.65; interaction score (4H697-AA): -1.71; interaction score (4H384-AA): -1.72; interaction score (4H982-AA): -1.22; interaction score (4H3718-AA): -1.33; interaction score (4H3631-AA): -1.43; interaction score (4H3395-AA): -1.76; interaction score (4H3381-AA): -0.986; interaction score (4H710-AA): -1.52; interaction score (4H850-AA): 0.681; interaction score (4H310-AA): -1.4; interaction score (4H3865-AA): 0.444; interaction score (4H2253-AA; mean of both orientations): -1.49; interaction score (4H3130-AA): 0.0677; interaction score (4H2274-AA): -1.11 |
| DKIAALEAENAALKAEIAALKAKIAALEG [4H2253-AA] | 0.841 | -0.259 | -0.709 | -0.468 | -1.44 | -1.27 | -1.65 | -1.74 | -0.76 | 0.72 | -0.788 | -1.41 | -1.77 | -1.37 | -1.54 | -1.14 | 0.647 | -1.02 | -1.07 | 0.0604 | interaction score (GCN2_T): -1.56; interaction score (4H_BCR): -1.47; interaction score (4H3590-AA): -1.09; interaction score (4H_GCN4): -1.12; interaction score (4H2774-AA): -0.645; interaction score (4H3395-AA): -1.22; interaction score (4H_APH): -1.1; interaction score (4H3381-AA): -1.4; interaction score (4H710-AA): 0.741; interaction score (4H850-AA): -0.973; interaction score (4H310-AA): -0.688; interaction score (4H3865-AA): -1.13; interaction score (4H2253-AA): 2.28; interaction score (4H3130-AA): -1.14; interaction score (4H2274-AA; mean of both orientations): -0.65 |
